Test results reported in the supplement of paper PMC11246515.
± gives the standard deviation of the averaged measurements.

Experiment: total protein half-life in vivo (active degradation + dilution); higher = more stable protein
[1] = E. coli NCM3722 delta-clpP delta-lon delta-hslV, growth: N-lim chemostat, doubling time 6 h
[2] = E. coli NCM3722 delta-hslV, growth: N-lim chemostat, doubling time 6 h
[3] = E. coli NCM3722 delta-lon, growth: N-lim chemostat, doubling time 6 h
[4] = E. coli NCM3722 delta-smpB, growth: N-lim chemostat, doubling time 6 h
[5] = wild type E. coli NCM3722, growth: C-lim chemostat, doubling time 3 h
[6] = wild type E. coli NCM3722, growth: C-lim chemostat, doubling time 6 h
[7] = wild type E. coli NCM3722, growth: C-lim chemostat, doubling time 12 h
[8] = wild type E. coli NCM3722, growth: N-lim chemostat, doubling time 6 h
[9] = wild type E. coli NCM3722, growth: N-lim chemostat, doubling time 12 h
[10] = wild type E. coli NCM3722, growth: P-lim chemostat, doubling time 6 h
[11] = wild type E. coli NCM3722, growth: P-lim chemostat, doubling time 12 h
[12] = E. coli NCM3722 delta-clpP, growth: N-lim chemostat, doubling time 6 h

MKATSEELAIFVSVVESGSFSRAAEQLGQANSAVSRAVKKLEMKLGVSLLNRTTRQLSLTEEGERYFRRVQSILQEMAAAESEIMETRNTPRGLLRIDAATPVVLHFLMPLIKPFRERYPEVTLSLVSSETIINLIERKVDVAIRAGTLTDSSLRARPLFNSYRKIIASPDYISRYGKPETIDDLKQHICLGFTEPASLNTWPIARSDGQLHEVKYGLSSNSGETLKQLCLSGNGIACLSDYMIDKEIARGELVELMADKVLPVEMPFSAVYYSDRAVSTRIRAFIDFLSEHVKTAPGGAVREA
total protein half-life in vivo [1]: 6.4 ± 0.2 h | total protein half-life in vivo [2]: 5.5 ± 1.2 h | total protein half-life in vivo [3]: 5.97 ± 0.94 h | total protein half-life in vivo [4]: 5.67 ± 0.07 h | total protein half-life in vivo [5]: 3.33 ± 0.26 h | total protein half-life in vivo [6]: 5.1 ± 0.3 h | total protein half-life in vivo [7]: 12.7 ± 0.46 h | total protein half-life in vivo [8]: 6.02 ± 0.12 h | total protein half-life in vivo [9]: 11.3 ± 0.32 h | total protein half-life in vivo [10]: 5.75 ± 0.71 h | total protein half-life in vivo [11]: 12 ± 1.9 h

MKRKVLLIPLIIFLAIAAALLWQLARNAEGDDPTNLESALIGKPVPKFRLESLDNPGQFYQADVLTQGKPVLLNVWATWCPTCRAEHQYLNQLSAQGIRVVGMNYKDDRQKAISWLKELGNPYALSLFDGDGMLGLDLGVYGAPETFLIDGNGIIRYRHAGDLNPRVWEEEIKPLWEKYSKEAAQ [P0AA86]
total protein half-life in vivo [1]: 6.39 ± 0.1 h | total protein half-life in vivo [4]: 6.09 ± 0.34 h | total protein half-life in vivo [5]: 3 ± 0.084 h | total protein half-life in vivo [6]: 6.112 ± 0.034 h | total protein half-life in vivo [7]: 13.3 ± 1.2 h | total protein half-life in vivo [8]: 6.16 ± 0.32 h | total protein half-life in vivo [10]: 5.3 h | total protein half-life in vivo [11]: 12.5 ± 1.7 h

MSEYRRYYIKGGTWFFTVNLRNRRSQLLTTQYQMLRHAIIKVKRDRPFEINAWVVLPEHMHCIWTLPEGDDDFSSRWREIKKQFTHACGLKNIWQPRFWEHAIRNTKDYRHHVDYIYINPVKHGWVKQVSDWPFSTFHRDVARGLYPIDWAGDVTDFSAGERIIS
total protein half-life in vivo [1]: 5.68 h | total protein half-life in vivo [5]: 1.93 h

MKKTAIAIAVALAGFATVAQAAPKDNTWYTGAKLGWSQYHDTGFINNNGPTHENQLGAGAFGGYQVNPYVGFEMGYDWLGRMPYKGSVENGAYKAQGVQLTAKLGYPITDDLDIYTRLGGMVWRADTKSNVYGKNHDTGVSPVFAGGVEYAITPEIATRLEYQWTNNIGDAHTIGTRPDNGMLSLGVSYRFGQGEAAPVVAPAPAPAPEVQTKHFTLKSDVLFNFNKATLKPEGQAALDQLYSQLSNLDPKDGSVVVLGYTDRIGSDAYNQGLSERRAQSVVDYLISKGIPADKISARGMGESNPVTGNTCDNVKQRAALIDCLAPDRRVEIEVKGIKDVVTQPQA [P0A910]
total protein half-life in vivo [1]: 6.64 ± 0.48 h | total protein half-life in vivo [12]: 6.96 ± 0.27 h | total protein half-life in vivo [2]: 6.86 ± 0.49 h | total protein half-life in vivo [3]: 7.032 ± 0.055 h | total protein half-life in vivo [4]: 5.84 ± 0.27 h | total protein half-life in vivo [5]: 3.41 ± 0.11 h | total protein half-life in vivo [6]: 6.7 ± 0.097 h | total protein half-life in vivo [7]: 13 ± 1.5 h | total protein half-life in vivo [8]: 6.3 ± 0.41 h | total protein half-life in vivo [9]: 13.6 ± 0.81 h | total protein half-life in vivo [10]: 6.224 ± 0.024 h | total protein half-life in vivo [11]: 15 ± 0.76 h

MGKEVMGKKENEMAQEKERPAGSQSLFRGLMLIEILSNYPNGCPLAHLSELAGLNKSTVHRLLQGLQSCGYVTTAPAAGSYRLTTKFIAVGQKALSSLNIIHIAAPHLEALNIATGETINFSSREDDHAILIYKLEPTTGMLRTRAYIGQHMPLYCSAMGKIYMAFGHPDYVKSYWESHQHEIQPLTRNTITELPAMFDELAHIRESGAAMDREENELGVSCIAVPVFDIHGRVPYAVSISLSTSRLKQVGEKNLLKPLRETAQAISNELGFTVRDDLGAIT
total protein half-life in vivo [1]: 6.16 ± 0.066 h | total protein half-life in vivo [12]: 6.38 ± 0.83 h | total protein half-life in vivo [2]: 5.57 ± 0.36 h | total protein half-life in vivo [3]: 5.84 ± 0.19 h | total protein half-life in vivo [4]: 5.29 ± 0.3 h | total protein half-life in vivo [5]: 2.91 ± 0.036 h | total protein half-life in vivo [6]: 6.07 ± 0.19 h | total protein half-life in vivo [7]: 12.6 ± 1.2 h | total protein half-life in vivo [8]: 5.86 ± 0.21 h | total protein half-life in vivo [9]: 9.57 ± 0.79 h | total protein half-life in vivo [10]: 6.38 ± 1.8 h | total protein half-life in vivo [11]: 11.2 ± 2.3 h

MKLYIYDHCPYCLKARMIFGLKNIPVELHVLLNDDAETPTRMVGQKQVPILQKDDSRYMPESMDIVHYVDKLDGKPLLTGKRSPAIEEWLRKVNGYANKLLLPRFAKSAFDEFSTPAARKYFVDKKEASAGNFADLLAHSDGLIKNISDDLRALDKLIVKPNAVNGELSEDDIQLFPLLRNLTLVAGINWPSRVADYRDNMAKQTQINLLSSMAI [P0AC59]
total protein half-life in vivo [12]: 5.06 ± 0.73 h | total protein half-life in vivo [2]: 5.49 ± 0.35 h | total protein half-life in vivo [3]: 5.77 ± 0.24 h | total protein half-life in vivo [4]: 5.01 ± 0.41 h | total protein half-life in vivo [6]: 5.57 ± 0.23 h | total protein half-life in vivo [7]: 11.7 ± 1.8 h | total protein half-life in vivo [8]: 5.02 ± 0.15 h | total protein half-life in vivo [9]: 9.43 ± 0.3 h | total protein half-life in vivo [10]: 5.33 ± 0.55 h | total protein half-life in vivo [11]: 11.9 ± 0.21 h

MATLTTTQTSPSLLGGVVIIGGTIIGAGMFSLPVVMSGAWFFWSMAALIFTWFCMLHSGLMILEANLNYRIGSSFDTITKDLLGKGWNVVNGISIAFVLYILTYAYISASGSILHHTFAEMSLNVPARAAGFGFALLVAFVVWLSTKAVSRMTAIVLGAKVITFFLTFGSLLGHVQPATLFNVAESNASYAPYLLMTLPFCLASFGYHGNVPSLMKYYGKDPKTIVKCLVYGTLMALALYTIWLLATMGNIPRPEFIGIAEKGGNIDVLVQALSGVLNSRSLDLLLVVFSNFAVASSFLGVTLGLFDYLADLFGFDDSAVGRLKTALLTFAPPVVGGLLFPNGFLYAIGYAGLAATIWAAIVPALLARASRKRFGSPKFRVWGGKPMIALILVFGVGNALVHILSSFNLLPVYQ [P0AAD2]
total protein half-life in vivo [1]: 2.1 h | total protein half-life in vivo [2]: 0.779 h | total protein half-life in vivo [4]: 0.897 h | total protein half-life in vivo [5]: 1.97 ± 0.16 h

MSNKMTGLVKWFNADKGFGFISPVDGSKDVFVHFSAIQNDNYRTLFEGQKVTFSIESGAKGPAAANVIITD
total protein half-life in vivo [1]: 0.427 ± 0.069 h | total protein half-life in vivo [12]: 0.486 ± 0.036 h | total protein half-life in vivo [2]: 0.454 h | total protein half-life in vivo [3]: 0.617 ± 0.26 h | total protein half-life in vivo [5]: 2.03 h | total protein half-life in vivo [7]: 0.407 h | total protein half-life in vivo [8]: 0.537 h | total protein half-life in vivo [9]: 0.434 h | total protein half-life in vivo [11]: 1.16 h
